Starred links: 1 amine or outer side, 2 acyl side, 3 side chain; linkers in the order of their positions; H or OH if unused. Positions of bridges follow the written chain, without caps; N, C: chain ends. Non-standard residues stand in square brackets, D forms with d. Groups on a side chain read outwards from the residue. *: point of attachment. X1 = K(γGlu-G-γGlu-17-carboxy-heptadecanoyl), O=C(O)CCCCCCCCCCCCCCCCC(=O)N[C@@H](CCC(=O)NCC(=O)N[C@@H](CCC(=O)NCCCC[C@H](N[*:1])C(=O)[*:2])C(=O)O)C(=O)O; Trp(1-Me) = Cn1cc(C[C@H](N)C(=O)O)c2ccccc21; C18 diacid = O=C(O)CCCCCCCCCCCCCCCCC(=O)*; γGlu = O=C(O)[C@H](CCC(=O)[*:2])N[*:1]; AEEA = NCCOCCOCC(=O)O; Sar = CNCC(=O)O
Experiments:
[1] = biological target: T1, Human C3 (Complement tech cat #A113c) (human, UniProt P01024 23-1663); test: SPR (Biacore T200), human C3 immobilised, peptide injected, 1:1 fit
T1 construct: Purified protein immobilised by amine coupling in the SPR assay; in the haemolysis assay it is the C3 of diluted human serum; Native C3 consists of a beta and an alpha chain cut from one precursor; also called C3 protein
Procedure: Surface plasmon resonance (SPR) was used to characterize peptides with respect to their binding affinity (Kd) for C3. Human C3 (Complement tech cat #A113c) was immobilised on individual flow cells of CM5 sensor chips (GE Healthcare) using standard amine coupling to a density of approximately 3000 resonance units (RU) in a buffer consisting of 10 mM phosphate pH 7.4, 150 mM NaCl, 0.05% Tween20.
For interaction experiments a multi-cycle experiment approach was used and performed using a BiacoreT200™ instrument (GE Healthcare) at 25° C. Peptides were injected in increasing concentration series (6-8 different concentrations) for 60-120 sat a flow rate of 30 µL/min in a buffer consisting of 10 mM Tris buffer at pH 7.4, with 150 mM NaCl and 0.05% Tween20. This was followed by a dissociation period for up to 10 min. The C3 surface was regenerated between runs by a 45 s injection of 3 M MgCl_2.

[2] = biological target: T1, Human C3 (Complement tech cat #A113c); test: cell-based or functional assay

T1 sequence (P01024 23-1663 limits assumed): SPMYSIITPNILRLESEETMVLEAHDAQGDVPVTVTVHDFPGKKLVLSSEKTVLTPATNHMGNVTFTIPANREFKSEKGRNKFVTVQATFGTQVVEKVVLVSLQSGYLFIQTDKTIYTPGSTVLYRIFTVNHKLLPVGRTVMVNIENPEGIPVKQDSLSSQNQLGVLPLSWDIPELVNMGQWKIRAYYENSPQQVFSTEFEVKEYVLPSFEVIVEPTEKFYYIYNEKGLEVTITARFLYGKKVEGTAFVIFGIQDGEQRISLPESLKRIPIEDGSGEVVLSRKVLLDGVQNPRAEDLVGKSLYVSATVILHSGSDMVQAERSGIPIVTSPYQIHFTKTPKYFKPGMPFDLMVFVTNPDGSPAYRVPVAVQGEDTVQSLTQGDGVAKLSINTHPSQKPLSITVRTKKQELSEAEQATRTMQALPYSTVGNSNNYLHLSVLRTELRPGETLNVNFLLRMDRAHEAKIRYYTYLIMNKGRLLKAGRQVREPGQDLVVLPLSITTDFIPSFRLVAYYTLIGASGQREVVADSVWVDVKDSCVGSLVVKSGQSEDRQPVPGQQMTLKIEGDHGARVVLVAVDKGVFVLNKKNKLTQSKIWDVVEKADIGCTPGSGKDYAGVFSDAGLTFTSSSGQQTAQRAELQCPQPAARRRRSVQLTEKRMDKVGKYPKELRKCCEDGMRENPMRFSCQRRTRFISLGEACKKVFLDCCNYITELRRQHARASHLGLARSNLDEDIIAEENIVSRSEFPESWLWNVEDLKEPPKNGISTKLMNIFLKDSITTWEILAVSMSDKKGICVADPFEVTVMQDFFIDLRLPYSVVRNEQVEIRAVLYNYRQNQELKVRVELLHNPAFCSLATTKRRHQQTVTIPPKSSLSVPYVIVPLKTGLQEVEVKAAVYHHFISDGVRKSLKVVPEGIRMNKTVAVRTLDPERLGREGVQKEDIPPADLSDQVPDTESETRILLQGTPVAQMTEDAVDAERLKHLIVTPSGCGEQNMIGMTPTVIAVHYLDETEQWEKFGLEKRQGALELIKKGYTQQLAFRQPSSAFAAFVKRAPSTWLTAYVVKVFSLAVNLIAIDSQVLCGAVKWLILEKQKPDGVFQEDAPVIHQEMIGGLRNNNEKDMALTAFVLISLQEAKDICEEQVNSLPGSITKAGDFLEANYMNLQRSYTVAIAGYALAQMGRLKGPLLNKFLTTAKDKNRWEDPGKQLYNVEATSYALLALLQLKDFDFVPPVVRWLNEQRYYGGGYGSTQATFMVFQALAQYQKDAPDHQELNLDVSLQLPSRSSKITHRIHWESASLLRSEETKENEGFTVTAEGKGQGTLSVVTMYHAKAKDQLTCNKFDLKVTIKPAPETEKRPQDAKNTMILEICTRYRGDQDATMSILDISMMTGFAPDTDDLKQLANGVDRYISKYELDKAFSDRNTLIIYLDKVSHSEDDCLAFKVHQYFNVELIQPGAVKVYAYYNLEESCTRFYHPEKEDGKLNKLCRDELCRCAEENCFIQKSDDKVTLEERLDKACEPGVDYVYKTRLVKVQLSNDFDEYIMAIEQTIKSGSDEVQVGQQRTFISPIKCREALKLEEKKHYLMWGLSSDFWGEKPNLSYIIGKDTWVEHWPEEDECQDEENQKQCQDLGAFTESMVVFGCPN

Kd [1]	Binder	inhibition of hemolysis IC50 [2]
4.4 nM	Ac-SEFCI[Trp(1-Me)]QDWGEHRCTEGEGGGK([γGlu-Gly-γGlu-C18 diacid])-NH2 (disulfide 4-14; SMILES CC[C@H](C)[C@@H]1NC(=O)[C@@H](NC(=O)[C@H](Cc2ccccc2)NC(=O)[C@H](CCC(=O)O)NC(=O)[C@H](CO)NC(C)=O)CSSC[C@@H](C(=O)N[C@H](C(=O)N[C@@H](CCC(=O)O)C(=O)NCC(=O)N[C@@H](CCC(=O)O)C(=O)NCC(=O)NCC(=O)NCC(=O)N[C@@H](CCCCNC(=O)CC[C@H](NC(=O)CNC(=O)CC[C@H](NC(=O)CCCCCCCCCCCCCCCCC(=O)O)C(=O)O)C(=O)O)C(N)=O)[C@@H](C)O)NC(=O)[C@H](CCCNC(=N)N)NC(=O)[C@H](Cc2c[nH]cn2)NC(=O)[C@H](CCC(=O)O)NC(=O)CNC(=O)[C@H](Cc2c[nH]c3ccccc23)NC(=O)[C@H](CC(=O)O)NC(=O)[C@H](CCC(N)=O)NC(=O)[C@H](Cc2cn(C)c3ccccc23)NC1=O) [Compound 130]	< 100 nM
8.5 nM	Ac-SEFCI[Trp(1-Me)]QDWGEHRC[Sar]EGE-{AEEA-AEEA-K(γGlu-Gly-γGlu-15-carboxy-pentadecanoyl)-NH2} (disulfide 4-14) [Compound 127]	< 100 nM
30 nM	Ac-SEYCI[Trp(1-Me)]QEW[Sar]EHRC[Sar]EK[γGlu]AK([AEEA-γGlu-AEEA-Gly-γGlu-C18 diacid])-NH2 (disulfide 4-14; SMILES CC[C@H](C)[C@@H]1NC(=O)[C@@H](NC(=O)[C@H](Cc2ccc(O)cc2)NC(=O)[C@H](CCC(=O)O)NC(=O)[C@H](CO)NC(C)=O)CSSC[C@@H](C(=O)N(C)CC(=O)N[C@@H](CCC(=O)O)C(=O)N[C@@H](CCCCN)C(=O)N[C@@H](CCC(=O)N[C@@H](C)C(=O)N[C@@H](CCCCNC(=O)COCCOCCNC(=O)CC[C@H](NC(=O)COCCOCCNC(=O)CNC(=O)CC[C@H](NC(=O)CCCCCCCCCCCCCCCCC(=O)O)C(=O)O)C(=O)O)C(N)=O)C(=O)O)NC(=O)[C@H](CCCNC(=N)N)NC(=O)[C@H](Cc2c[nH]cn2)NC(=O)[C@H](CCC(=O)O)NC(=O)CN(C)C(=O)[C@H](Cc2c[nH]c3ccccc23)NC(=O)[C@H](CCC(=O)O)NC(=O)[C@H](CCC(N)=O)NC(=O)[C@H](Cc2cn(C)c3ccccc23)NC1=O) [Compound 121]	< 250 nM
5.2 nM	Ac-SEFCI[Trp(1-Me)]QDWGEHRCTEGE-{AEEA-AEEA-X1-NH2} (disulfide 4-14; SMILES CC[C@H](C)[C@@H]1NC(=O)[C@@H](NC(=O)[C@H](Cc2ccccc2)NC(=O)[C@H](CCC(=O)O)NC(=O)[C@H](CO)NC(C)=O)CSSC[C@@H](C(=O)N[C@H](C(=O)N[C@@H](CCC(=O)O)C(=O)NCC(=O)N[C@@H](CCC(=O)O)C(=O)NCCOCCOCC(=O)NCCOCCOCC(=O)N[C@@H](CCCCNC(=O)CC[C@H](NC(=O)CNC(=O)CC[C@H](NC(=O)CCCCCCCCCCCCCCCCC(=O)O)C(=O)O)C(=O)O)C(N)=O)[C@@H](C)O)NC(=O)[C@H](CCCNC(=N)N)NC(=O)[C@H](Cc2c[nH]cn2)NC(=O)[C@H](CCC(=O)O)NC(=O)CNC(=O)[C@H](Cc2c[nH]c3ccccc23)NC(=O)[C@H](CC(=O)O)NC(=O)[C@H](CCC(N)=O)NC(=O)[C@H](Cc2cn(C)c3ccccc23)NC1=O) [Compound 126]	< 100 nM
6.5 nM	Ac-SEFCI[Trp(1-Me)]QDWGEHRC[Sar]EGE-{AEEA-AEEA-K(γGlu-Gly-γGlu-19-carboxy-nonadecanoyl)-NH2} (disulfide 4-14, also called comp 128) [Compound 128]	< 100 nM
